Measured values taken from US20100015126A1, “Methods of Binding of Cross-Beta Structures By Chaperones” (priority 2006, published 2010).

Assays:
[1] = Transmission electron microscopy (TEM); assay type: physicochemical; details: magnification 10K
Protocol: Transmission Electron Microscopy (TEM)
TEM images were collected using a Jeol 1200 EX transmission electron microscope (Jeol Ltd., Tokyo, Japan) at an excitation voltage of 80 kV. For each sample, the formvar and carbon-coated side of a 100-mesh copper or nickel grid was positioned on a 5 μl drop of protein solution for 5 minutes. Afterwards, it was positioned on a 100 μl drop of PBS for 2 minutes, followed by three 2-minute incubations with a 100 μl drop of distilled water. The grids were then stained for 2 minutes with a 100 μl drop of 2% (m/v) methylcellulose with 0.4% uranyl acetate pH 4. Excess fluid was removed by streaking the side of the grids over filter paper, and the grids were subsequently dried under a lamp. Samples were analysed at a magnification of 10K.

[2] = biological target: T1, recombinant human HSP90beta (Homo sapiens, UniProt P08238); test: ELISA: binding of HSP90 to immobilized (misfolded) protein ligands; details: 5 mM DTT in binding buffer
T1 construct: purchased Dr. S. Rüdiger, Cellular Protein Chemistry, Utrecht University
T1 sequence (P08238 whole entry): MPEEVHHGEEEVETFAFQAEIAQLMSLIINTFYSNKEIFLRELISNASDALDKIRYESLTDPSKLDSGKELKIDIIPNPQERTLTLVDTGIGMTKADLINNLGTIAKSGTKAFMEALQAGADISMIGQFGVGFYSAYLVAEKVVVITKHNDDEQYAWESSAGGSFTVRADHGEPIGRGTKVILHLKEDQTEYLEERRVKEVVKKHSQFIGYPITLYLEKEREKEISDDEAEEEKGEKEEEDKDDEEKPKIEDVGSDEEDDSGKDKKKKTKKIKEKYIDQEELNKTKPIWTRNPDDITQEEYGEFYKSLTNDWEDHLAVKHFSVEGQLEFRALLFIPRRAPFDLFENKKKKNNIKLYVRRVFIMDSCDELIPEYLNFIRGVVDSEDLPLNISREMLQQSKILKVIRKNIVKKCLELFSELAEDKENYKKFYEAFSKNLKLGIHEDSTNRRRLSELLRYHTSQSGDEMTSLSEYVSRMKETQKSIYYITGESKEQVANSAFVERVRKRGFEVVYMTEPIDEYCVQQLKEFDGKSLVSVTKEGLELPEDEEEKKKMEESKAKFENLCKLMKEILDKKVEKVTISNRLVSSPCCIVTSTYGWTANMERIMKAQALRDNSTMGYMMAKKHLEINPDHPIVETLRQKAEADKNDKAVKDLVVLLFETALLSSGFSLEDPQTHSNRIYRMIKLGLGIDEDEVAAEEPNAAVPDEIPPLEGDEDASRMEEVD
Protocol: Recombinant human HSP90beta was bought from Dr. S. Rüdiger (Cellular Protein Chemistry, Department of Chemistry, Faculty of Science, Utrecht University). HSP90beta eluted from an anion exchange column was supplied in 35 mM Bis-Tris/25mM Tris, 5 mM DTT, approximately 385 mM NaCl, approximately pH 9.0. The HSP90beta concentration was 5.0 μM (450 μg/ml with a MW of 90.000 Da; extinction coefficient of 53740 l/(mol*cm)). The supplied frozen stock is kept at −80° C. Before use, the stock is quickly thawed almost completely in a 37° C. water bath, and kept at wet ice. Before use, the HSP90beta solution is centrifuged for 5 minutes at 16,000*g at 4° C. During dilution of HSP90beta solution, 5 mM DTT should be incorporated in the dilution buffer, to keep free Cys residues. Thawed HSP90beta was aliquoted and snap frozen in liquid nitrogen before re-storage at −80° C.
Binding of chaperones to immobilized (misfolded) protein ligands was determined using an enzyme linked immuno sorbent assay (ELISA) approach. […] After 5 washes with wash buffer followed by two washes with PBS, binding of antibodies was assessed. […] Plates were read at 450 nm. Triplicates were averaged and standard deviations calculated. […]

B1: dOVA standard: heat-denatured chicken ovalbumin (protein)
chain: GSIGAASMEFCFDVFKELKVHHANENIFYCPIAIMSALAMVYLGAKDSTRTQINKVVRFDKLPGFGDSIEAQCGTSVNVHSSLRDILNQITKPNDVYSFSLASRLYAEERYPILPEYLQCVKELYRGGLEPINFQTAADQARELINSWVESQTNGIIRNVLQPSSVDSQTAMVLVNAIVFKGLWEKAFKDEDTQAMPFRVTEQESKPVQMMYQIGLFRVASMASEKMKILELPFASGTMSMLVLLPDEVSGLEQLESIINFEKLTEWTSSNVMEERKIKVYLPRMKMEEKYNLTSVLMAMGITDVFSSSANLSGISSAESLKISQAVHAAHAEINEAGREVVGSAEAGVDAASVSEEFRADHPFLFCIKHIATNAVLFFGRCVSP
With B1 the “Appearance on TEM images” value [1] was “aggregates into non-fibrillar multimers” and the “Binding of concentration series of HSP90 to coated ligand” value [2] was “did also not bind”.
